Holding throughout (assay): cell-based or functional assay
The target of assay [1] is hamster CAIX on transduced skrc-59 cells (hamster).
Assay [2] has as its target monkey CAIX on transduced skrc-59 cells (monkey).
Assay [3] has as its target mouse CAIX on transduced skrc-59 cells (mouse, UniProt Q8VHB5 32-437).

These results are taken from US12577311 (Dana-Farber, dated 2026).

Chain of mouse CAIX on transduced skrc-59 cells (Q8VHB5 32-437): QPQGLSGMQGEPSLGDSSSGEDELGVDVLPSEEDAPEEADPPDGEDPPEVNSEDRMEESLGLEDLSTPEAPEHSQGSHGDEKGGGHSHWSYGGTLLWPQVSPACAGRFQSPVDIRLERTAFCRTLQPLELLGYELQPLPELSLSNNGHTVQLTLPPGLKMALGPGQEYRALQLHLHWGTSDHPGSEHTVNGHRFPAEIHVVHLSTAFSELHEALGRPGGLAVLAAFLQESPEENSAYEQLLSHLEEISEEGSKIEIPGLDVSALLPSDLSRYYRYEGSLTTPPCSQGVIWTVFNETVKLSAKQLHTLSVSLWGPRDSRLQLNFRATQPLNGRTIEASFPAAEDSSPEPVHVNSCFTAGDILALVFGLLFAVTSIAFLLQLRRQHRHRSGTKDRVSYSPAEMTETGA

B1: anti-CAIX (G36) CAR (scFv, V domains shown)
VH: EVQLVQSGGGVVQPGGSLRLSCAASGFPFSSYAMSWVRQAPGKGLEWVSAISANGGTTYYADSVKGRFTISRDNSKNTLYLQMNSLRAEDTAVYYCANNGNYRGAFDIWGQGTMVTVSS
VL: QSVLTQPPSVSGAPGQRVTISCTGSSSNIGAGFDVHWYQQLPGTAPKLLIYGNTNRPSGVPDRFSGSKSGTSASLAITGLQAEDETDYYCQSYDSRLSAWVFGGGTKLTVLG
For B1, the “killing assay of anti-CAIX (G36) CAR T cells” value in assay [1] amounted to 50%; in assay [2] it was 100%; in assay [3] it was 50%.
